Assay results published in patent US20090202520A1.

Target: soluble recombinant FcγRIIIB (sFcγRIIIB) (UniProt O75015)
Experiment: SPR, comparison of SAP and CRP affinities

soluble recombinant FcγRIIIB (sFcγRIIIB), sequence (O75015 17-200): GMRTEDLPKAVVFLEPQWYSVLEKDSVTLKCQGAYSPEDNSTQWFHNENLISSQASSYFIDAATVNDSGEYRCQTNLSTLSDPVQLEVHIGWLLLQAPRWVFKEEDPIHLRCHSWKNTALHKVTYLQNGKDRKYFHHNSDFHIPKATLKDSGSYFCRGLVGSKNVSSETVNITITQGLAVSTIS

- fold affinity of SAP over CRP for the same receptor: 1000 fold
Substance: serum amyloid P (SAP) (from UniProt P02743 20-223) (ligand; other documents disagree on this pair)
